{"source": "the DeepSol protein solubility set", "data": [{"assay": "soluble on expression in E. coli; label from the status in PepcDB or PDB records", "values": [{"sequence": "MVAAPPAVGAAMPSLDFDTSVFNKEKVSLAGHEEYIVRGGRNLFPLLPEAFKGIKQIGVIGWGSQGPAQAQNLRDSLAEAKSDIVVKIGLRKGSKSFDEARAAGFTEESGTLGDIWETVSGSDLVLLLISDAAQADNYEKIFSHMKPNSILGLSHGFLLGHLQSAGLDFPKNISVIAVCPKGMGPSVRRLYVQGKEINGAGINSSFAVHQDVDGRATDVALGWSVALGSPFTFATTLEQEYKSDIFGERGILLGAVHGIVEALFRRYTEQGMDEEMAYKNTVEGITGIISKTISKKGMLEVYNSLTEEGKKEFNKAYSASFYPCMDILYECYEDVASGSEIRSVVLAGRRFYEKEGLPAFPMGNIDQTRMWKVGEKVRSTRPENDLGPLHPFTAGVYVALMMAQIEVLRKKGHSYSEIINESVIESVDSLNPFMHARGVAFMVDNCSTTARLGSRKWAPRFDYILTQQAFVTVDKDAPINQDLISNFMSDPVHGAIEVCAELRPTVDISVPANADFVRPELRQSS", "soluble on expression in E. coli": "soluble"}, {"sequence": "MVAERNKDGRVVFDRGLRAQMMAIDGTWRRPCLIEDVSELGAKLTVEGTVEGLNLKEFFLLLSSTGLAYRRCELSWINGDQIGVTFLRLDRKKKRAAQVENA", "soluble on expression in E. coli": "not soluble"}, {"sequence": "MVAEVCSMPTASTVKKPFDLRSKMGKWCHHRFPCCRGSGKSNMGTSGDHDDSFMKMLRSKMGKCCRHCFPCCRGSGTSNVGTSGDHENSFMKMLRSKMGKWCCHCFPCCRGSSKSNVGAWGDYDHSAFMEPRYHVRREDLDKLHRAAWWGKVPRKDLIVMLRDTDMNKRDKEKRTALHLASANGNSEVVQLLLDRRCQLNVLDNKKRTALIKAVQCQEDECVLMLLEHGADRNIPDEYGNTALHYAIYNEDKLMAKALLLYGADIESKNKV", "soluble on expression in E. coli": "not soluble"}, {"sequence": "MVCLESDTCQSSQLLNTSFKRGFFSNLYPMIKRTAVERCPLFSVETGFYLKAPGILFVIERKKKQMNHETIQKLQFTTILKEVQTRAIGEYSKERLAKMVPATRLETVQSRLTETTEARLIIDSGQHVPFMGLSQITRLLQQVKKGLILTPNELIEVADFLRSSQRIQKFFEKNQYQTPRLFSYSQHLADFRAIEEQIYTKIHNQKVATDASRQLRKIRRQINECQQEIETKVTKFLRNKNNQLYIQENMMVKKGEHYTVPIKASYKNKVSGTIIEQSNKGQTVFIEPVAISKLNEQLTLLKAEETAEEYQILAELTGLINEQERLVDQAVDTMTTLDIIFARGKYSREIGGITPKVNKEERLRIVQGKHPLLLEHAVPLTFSLGAEYRGLVITGANAGGKTVVLKTVGLLTVMTQFGLQIPAQAGTEIPVLDEIFVDIGDQQNLENALSTFSGHMKNIAEMLRNVKRHTLVLLDEIGSGTEPNEGAGLAIAIMETMYQKGALVVATTHYGEIKRFAQEHDDFVPAAMAFDRETLTPKYQLKIGEVGDSQALWIARKMKMEPQLIEKAAHYIQRKEYPTNRSLFKPLKAKETTFATFVEETHRYQKGDRVLLTETQQIGLVFTDEGEQEIQVFVNDKIENVPRRRLKLQAKAQDLYPQDYDLESLFTDFHERKKLKDIERGSKKAQKQLRKEAEKRAARRDK", "soluble on expression in E. coli": "not soluble"}, {"sequence": "MVDKAGNPLTVDDISQCHLPGFPILFTQNELLEILAKEIFKQQFLWKSVQDKDIKECNKEERIIKQIPLMPRCPDVLKGLFHCIEIRDERSPKHAIAYKSCLGKLEEMVKDQWDDWNRNQS", "soluble on expression in E. coli": "not soluble"}, {"sequence": "MVDKNSLRKLMLLKRAELNDLEKSHLDQKINQKLMAFLITRPTIKNLALYIPIKNEVAFLDNFLDFLKLNKITSCFPSIVDQFNMKFIDQNNNEINPNDIDCFFIPLLAFNKANHRIGFGKGYYDRYLSLTSKKQLKIGIAYDFQYAEFTNDPWDYQLDLIICNGMAGDPLEHHHHHH", "soluble on expression in E. coli": "soluble"}, {"sequence": "MVEEICHICNDKSTGKHYGAISCDGCKGFFRRSIRKRYHYQCRFEQNCDVTKNKRNACRACRLQKCVKAGMKSNAIQNERDAIGKRKKTTGAEKEDLIDQLVAAETLCQQLRSSVIKNTSSLAPYDCGKVKWNYEDARAATLDDIGKSIHQQLVLFIEWAKSLPQFSFLAQADQAALLKGGAASIIVLGVAYRSICLTVENTICLANDTLLPKEHATQVGDINCVVGRIIDEIVNPMRRLNMDLIEYVALKAILFFNPVVREINDQSPVENARYAFLRSLQRRCTDKALENMEDESMDCRSGKLLLLLPSLQAIAQQLVEDVQLARLFGLVNVDSLMEELILNDMKPSDPQILQTSLASPVNSSVKAEVELEE", "soluble on expression in E. coli": "soluble"}, {"sequence": "MVEISKRIISTFGKTNAHFKLITENDRVLVGLSGGKDSLLLATLLARLARHAPFKFEFKALTVDYGIGEDFSYLQNYCAENGIPHEVFKTNIMEVMQEKRRENSSYCSFCSRLRRGALYSKALEGGYNKLALGHHLDDAAESFFMNFSYNGAIRSMPPIYRAYNGLWVIRPLIWLRERQMVDFVLKNNLQTPLCNC", "soluble on expression in E. coli": "not soluble"}, {"sequence": "MVEKHLLEFLEKLQFLISKNVKISHYGIENVKKICGVDIAYKGNLGFSVGVSMDINSGDYNYKSYVGEVNFPYIPGFLFMREAPLMIKAIEGLDCHLLLVDGHGIAHPRKSGIAAVIGVLLDFPTIGVAKSRLTGDLVNESEITYVYLNGEKVGVKFGRYFYSPGNKVDLQDCIELGKRGYPKVLKIADMLTKKIKKE", "soluble on expression in E. coli": "soluble"}, {"sequence": "MVELTPAAIQELERLQTHGVRRGQAAILRIQVQPSECGDWRYDLALVAEPKPTDLLTQSQGWTIAIAAEAAELLRGLRVDYIEDLMGGAFRFHNPNASQTCGCGMAFRVSRS", "soluble on expression in E. coli": "soluble"}, {"sequence": "MVETLPALEIGEDERLDLENLATGAFFPVKGFMTREEALSVAHEMRLPTGEVWTIPILLQFREKPRVGPGNTVALLHGGERVALLHVAEAYELDLEALARAVFGTDSETHPGVARLYGKGPYALAGRVEVLKPRPRTPLEKTPEEVRAFFRQRGWRKVVAFQTRNAPHRAHEYLIRLGLELADGVLVHPILGAKKPDDFPTEVIVEAYQALIRDFLPQERVAFFGLATPMRYAGPKEAVFHALVRKNFGATHFLVGRDHAGVGDFYDPYAAHRIFDRLPPLGIEIVKVGAVFHCPLCGGIASERTCPEGHREKRTAISMTKVRALLREGKAPPSELVRPELLPILRRGV", "soluble on expression in E. coli": "soluble"}, {"sequence": "MVFDKLLEQAGINLEFEDKEIKDSDYLGDVSDLIKIAVIGVGGSGNNTISRLYDLGVQGADLIAMNTDAQHLHQIKAHKKLLLGKSITHGKGSGGDPRIGYRAAEASASEIADIVKDYDLIFLTAGMGNGTGTGATPVIARIIKETARNNGLPQEPLVISVVTFPFKMEGKVRIEKAKAGIEMLLEYSDTVIIIQNDKLIELVPKLPIQVAFRFADEIIARMVKGIVETIKLPSMVNIDYADIYSVMKGGGPALIGIGESDSNNRAVDAVMEALNNKMLDIEFGSGDKALVHFTVGPDVSLEEITKAMEIVYERLGEKSEIKWGAMIEEDMGKTVRAMVIMTGVRSPQILGNINVNALTYSSSSLVVPRDSKIMSESKVDEIFSSIDPRASKLRKGNNSSRINKIFKDLGFYEL", "soluble on expression in E. coli": "soluble"}, {"sequence": "MVFDRQMKRGQRDWAVRQPDFKAAQYLKEEIGWRVADKVFDLTKFNPLVLDIGCGVGHIAPHLIKENVGKIIQVDMSGGMAQSSAKCEDPEVIVERRTVDEETLDGFHENQFDLLLTSMSAHWINHLPQWMRKCHDIVKPDCPFIGSMLAEDTLYELRCSLQLAELERIGGVSSHISPFVKTQDIGGLLSSAGFDMITLDSDEIQVGYPNMFALMYDLQLMGESHCTHRRNPTIRRDVLVAAEAIYQSMYSSDGKYPATFKIVSFIGWKPGPNMPKAAKRGSQTVSLKDIGKIVEDPEMMRKMSEKDGVDKKK", "soluble on expression in E. coli": "not soluble"}, {"sequence": "MVFFTCNACGESVKKIQVEKHVSNCRNCECLSCIDCGKDFWGDDYKSHVKCISEGQKYGGKGYEAK", "soluble on expression in E. coli": "soluble"}, {"sequence": "MVGGGGVKFIEMDIRDKEAYELAKEWFDEVVVSIKFNEEVDKEKLREARKEYGKVAILLSNPKPSLVRDTVQKFKSYLIYVESNDLRVIRYSIEKGVDAIISPWVNRKDPGIDHVLAKLMVKKNVALGFSLRPLLYSNPYERANLLRFMMKAWKLVEKYKVRRFLTSSAQEKWDVRYPRDLISLGVVIGMEIPQAKASISMYPEIILKRLKY", "soluble on expression in E. coli": "soluble"}, {"sequence": "MVGGLTHVDEKGVKMVEIGYKDVVFRKAVAKGRIKLKPETVKLIKEGKIEKGNVLATAQIAGILAVKRTPELIPLCHPIPITGVDITFDFGEDYIEVTCEVRAYYKTGVEMEALTGVTVALLAIWDMVKAVEKDEKGQYPYTRIENVHVVEKVKTHNSQ", "soluble on expression in E. coli": "soluble"}]}]}
